# Assay results from IntAct's records for PubMed 9845368.
# B1: Phytochrome B (Arabidopsis thaliana (Mouse-ear cress)), P14713 (parent)
# chain: MVSGVGGSGGGRGGGRGGEEEPSSSHTPNNRRGGEQAQSSGTKSLRPRSNTESMSKAIQQYTVDARLHAVFEQSGESGKSFDYSQSLKTTTYGSSVPEQQITAYLSRIQRGGYIQPFGCMIAVDESSFRIIGYSENAREMLGIMPQSVPTLEKPEILAMGTDVRSLFTSSSSILLERAFVAREITLLNPVWIHSKNTGKPFYAILHRIDVGVVIDLEPARTEDPALSIAGAVQSQKLAVRAISQLQALPGGDIKLLCDTVVESVRDLTGYDRVMVYKFHEDEHGEVVAESKRDDLEPYIGLHYPATDIPQASRFLFKQNRVRMIVDCNATPVLVVQDDRLTQSMCLVGSTLRAPHGCHSQYMANMGSIASLAMAVIINGNEDDGSNVASGRSSMRLWGLVVCHHTSSRCIPFPLRYACEFLMQAFGLQLNMELQLALQMSEKRVLRTQTLLCDMLLRDSPAGIVTQSPSIMDLVKCDGAAFLYHGKYYPLGVAPSEVQIKDVVEWLLANHADSTGLSTDSLGDAGYPGAAALGDAVCGMAVAYITKRDFLFWFRSHTAKEIKWGGAKHHPEDKDDGQRMHPRSSFQAFLEVVKSRSQPWETAEMDAIHSLQLILRDSFKESEAAMNSKVVDGVVQPCRDMAGEQGIDELGAVAREMVRLIETATVPIFAVDAGGCINGWNAKIAELTGLSVEEAMGKSLVSDLIYKENEATVNKLLSRALRGDEEKNVEVKLKTFSPELQGKAVFVVVNACSSKDYLNNIVGVCFVGQDVTSQKIVMDKFINIQGDYKAIVHSPNPLIPPIFAADENTCCLEWNMAMEKLTGWSRSEVIGKMIVGEVFGSCCMLKGPDALTKFMIVLHNAIGGQDTDKFPFPFFDRNGKFVQALLTANKRVSLEGKVIGAFCFLQIPSPELQQALAVQRRQDTECFTKAKELAYICQVIKNPLSGMRFANSLLEATDLNEDQKQLLETSVSCEKQISRIVGDMDLESIEDGSFVLKREEFFLGSVINAIVSQAMFLLRDRGLQLIRDIPEEIKSIEVFGDQIRIQQLLAEFLLSIIRYAPSQEWVEIHLSQLSKQMADGFAAIRTEFRMACPGEGLPPELVRDMFHSSRWTSPEGLGLSVCRKILKLMNGEVQYIRESERSYFLIILELPVPRKRPLSTASGSGDMMLMMPY
# partner: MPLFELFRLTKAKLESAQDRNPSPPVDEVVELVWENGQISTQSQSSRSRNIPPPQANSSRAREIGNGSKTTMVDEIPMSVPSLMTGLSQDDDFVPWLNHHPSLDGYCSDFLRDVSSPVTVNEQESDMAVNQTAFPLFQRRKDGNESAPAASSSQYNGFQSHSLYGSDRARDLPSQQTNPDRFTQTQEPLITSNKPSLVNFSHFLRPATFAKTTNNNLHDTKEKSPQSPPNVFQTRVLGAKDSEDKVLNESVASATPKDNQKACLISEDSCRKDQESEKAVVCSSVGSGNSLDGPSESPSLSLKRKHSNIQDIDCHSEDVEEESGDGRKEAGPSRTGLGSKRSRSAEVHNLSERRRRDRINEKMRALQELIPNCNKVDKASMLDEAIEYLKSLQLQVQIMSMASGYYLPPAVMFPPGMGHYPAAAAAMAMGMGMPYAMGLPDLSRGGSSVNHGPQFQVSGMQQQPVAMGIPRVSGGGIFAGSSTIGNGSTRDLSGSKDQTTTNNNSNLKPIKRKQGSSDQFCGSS
# B2: Phytochrome A (Arabidopsis thaliana (Mouse-ear cress)), P14712 (parent)
# chain: MSGSRPTQSSEGSRRSRHSARIIAQTTVDAKLHADFEESGSSFDYSTSVRVTGPVVENQPPRSDKVTTTYLHHIQKGKLIQPFGCLLALDEKTFKVIAYSENASELLTMASHAVPSVGEHPVLGIGTDIRSLFTAPSASALQKALGFGDVSLLNPILVHCRTSAKPFYAIIHRVTGSIIIDFEPVKPYEVPMTAAGALQSYKLAAKAITRLQSLPSGSMERLCDTMVQEVFELTGYDRVMAYKFHEDDHGEVVSEVTKPGLEPYLGLHYPATDIPQAARFLFMKNKVRMIVDCNAKHARVLQDEKLSFDLTLCGSTLRAPHSCHLQYMANMDSIASLVMAVVVNEEDGEGDAPDATTQPQKRKRLWGLVVCHNTTPRFVPFPLRYACEFLAQVFAIHVNKEVELDNQMVEKNILRTQTLLCDMLMRDAPLGIVSQSPNIMDLVKCDGAALLYKDKIWKLGTTPSEFHLQEIASWLCEYHMDSTGLSTDSLHDAGFPRALSLGDSVCGMAAVRISSKDMIFWFRSHTAGEVRWGGAKHDPDDRDDARRMHPRSSFKAFLEVVKTRSLPWKDYEMDAIHSLQLILRNAFKDSETTDVNTKVIYSKLNDLKIDGIQELEAVTSEMVRLIETATVPILAVDSDGLVNGWNTKIAELTGLSVDEAIGKHFLTLVEDSSVEIVKRMLENALEGTEEQNVQFEIKTHLSRADAGPISLVVNACASRDLHENVVGVCFVAHDLTGQKTVMDKFTRIEGDYKAIIQNPNPLIPPIFGTDEFGWCTEWNPAMSKLTGLKREEVIDKMLLGEVFGTQKSCCRLKNQEAFVNLGIVLNNAVTSQDPEKVSFAFFTRGGKYVECLLCVSKKLDREGVVTGVFCFLQLASHELQQALHVQRLAERTAVKRLKALAYIKRQIRNPLSGIMFTRKMIEGTELGPEQRRILQTSALCQKQLSKILDDSDLESIIEGCLDLEMKEFTLNEVLTASTSQVMMKSNGKSVRITNETGEEVMSDTLYGDSIRLQQVLADFMLMAVNFTPSGGQLTVSASLRKDQLGRSVHLANLEIRLTHTGAGIPEFLLNQMFGTEEDVSEEGLSLMVSRKLVKLMNGDVQYLRQAGKSSFIITAELAAANK
# partner: B1 partner
# B3: Phytochrome B (Oryza sativa subsp. japonica (Rice)), Q10MG9 (parent)
# chain: MASGSRATPTRSPSSARPAAPRHQHHHSQSSGGSTSRAGGGGGGGGGGGGGAAAAESVSKAVAQYTLDARLHAVFEQSGASGRSFDYTQSLRASPTPSSEQQIAAYLSRIQRGGHIQPFGCTLAVADDSSFRLLAYSENTADLLDLSPHHSVPSLDSSAVPPPVSLGADARLLFAPSSAVLLERAFAAREISLLNPLWIHSRVSSKPFYAILHRIDVGVVIDLEPARTEDPALSIAGAVQSQKLAVRAISRLQALPGGDVKLLCDTVVEYVRELTGYDRVMVYRFHEDEHGEVVAESRRNNLEPYIGLHYPATDIPQASRFLFRQNRVRMIADCHAAPVRVIQDPALTQPLCLVGSTLRSPHGCHAQYMANMGSIASLVMAVIISSGGDDDHNISRGSIPSAMKLWGLVVCHHTSPRCIPFPLRYACEFLMQAFGLQLNMELQLAHQLSEKHILRTQTLLCDMLLRDSPTGIVTQSPSIMDLVKCDGAALYYHGKYYPLGVTPTEVQIKDIIEWLTMCHGDSTGLSTDSLADAGYPGAAALGDAVSGMAVAYITPSDYLFWFRSHTAKEIKWGGAKHHPEDKDDGQRMHPRSSFKAFLEVVKSRSLPWENAEMDAIHSLQLILRDSFRDSAEGTSNSKAIVNGQVQLGELELRGIDELSSVAREMVRLIETATVPIFAVDTDGCINGWNAKVAELTGLSVEEAMGKSLVNDLIFKESEETVNKLLSRALRGDEDKNVEIKLKTFGPEQSKGPIFVIVNACSSRDYTKNIVGVCFVGQDVTGQKVVMDKFINIQGDYKAIVHNPNPLIPPIFASDENTCCSEWNTAMEKLTGWSRGEVVGKLLVGEVFGNCCRLKGPDALTKFMIVLHNAIGGQDCEKFPFSFFDKNGKYVQALLTANTRSRMDGEAIGAFCFLQIASPELQQAFEIQRHHEKKCYARMKELAYIYQEIKNPLNGIRFTNSLLEMTDLKDDQRQFLETSTACEKQMSKIVKDASLQSIEDGSLVLEKGEFSLGSVMNAVVSQVMIQLRERDLQLIRDIPDEIKEASAYGDQYRIQQVLCDFLLSMVRFAPAENGWVEIQVRPNIKQNSDGTDTMLFLFRFACPGEGLPPEIVQDMFSNSRWTTQEGIGLSICRKILKLMGGEVQYIRESERSFFHIVLELPQPQQAASRGTS
# partner: B1 partner
# Variants of: B1
# Conditions: with pif3_arath PIF3, O80536
row,effect of a mutation on the interaction,Variant
1,decreasing interaction,E812K
2,decreasing interaction,A750V

# Variants of: B2
# Conditions: with pif3_arath PIF3, O80536
row,effect of a mutation on the interaction,Variant
1,decreasing interaction,G787E
2,decreasing interaction,A715V

# Variants of: B3
# Conditions: with pif3_arath PIF3, O80536
row,effect of a mutation on the interaction,Variant
1,decreasing interaction,E821K
2,decreasing interaction,A759V
